The text below walks through data of patent publication US20220298231A1 (AC IMMUNE, published 2022).

The target of assay [1] is human full-length alpha-synuclein (human, UniProt P37840 1-140). Kind of assay: SPR, 100 nM monomer, relative to chimeric. (In general: SPR reads the build-up and loss of mass on a sensor chip optically.);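 note: SPR with antibody variants captured via anti-human Fc IgG on an amine-coupled chip, isotype IgG1 reference channel subtracted, dissociation rate fitted by 1:1 or heterogeneous ligand model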
The target of the next assay is alpha-synuclein fibrils (Homo sapiens (Human), UniProt P37840 1-140). Kind of assay: SPR, 450 nM aggregates, relative to chimeric.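 Note: surface plasmon resonance with anti-human Fc capture, human IgG1 isotype control channel and buffer run subtracted, dissociation rates fitted by 1:1 or heterogeneous ligand binding model.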
Description: (§1) Flow channels (Fc) 1-8 were activated with a fresh solution of EDC/NHS (Amine Coupling Kit, 1:1 ratio of both reagents, GE Healthcare Life Sciences, BR100050). […] The chip was deactivated by 1 M ethanolamine-HCl (GE Healthcare Life Sciences, BR100050) at a flow rate of 10 μL/min for 420 s.
(§2) A human IgG1 isotype control diluted in running buffer 1×HBS-EP+ (GE Healthcare Life Sciences, BR100669) was captured onto Fc1 via anti-human Fc IgG at a flow rate of 10 μL/min. […] 10 mM glycine pH 1.5 as regeneration buffer was injected following every dissociation phase.
(§3) The data for reference channel Fc1 and buffer channel were subtracted to generate the sensorgrams. The experimental data was fitted by 1:1 binding model or heterogeneous ligand model.

Description for alpha-synuclein fibrils: as §1, §2, §3

B1: hACI-7067-1101C8-Ab2_H2L1 (antibody, V domains shown)
VH: EVQLVESGGGLVQPGGSLKLSCAASGFSFNIYAMNWVRQAPGKGLEWVGRIRSKSNAYATYYAASVKGRFTISRDDSKNTLYLQMNNLKTEDTAVYYCVRVGLRFYAMDYWGQGTLVTVSS
VL: DVVMTQSPLSLPVTLGQPASISCRSSQSIVHSNANTYLEWYQQRPGQSPRLLIYKVSNRFSGVPDRFSGSGSGTDFTLKISRVEAEDLGVYYCFQGSQGPLTFGQGTKLEIK
notes: VH on human IgG1 constant, VL on human kappa constant
On to B1, for which the Relative koff in assay [1] was found to be 2; with alpha-synuclein fibrils, 0.5.

B2: hACI-7067-1101C8-Ab2_H4L2 (antibody, V domains shown)
VH: EVQLVESGGGLVQPGGSLKLSCAASGFTFNIYAMNWVRQAPGKGLEWVGRIRSKSNAYATYYAASVKGRFTISRDDSKNTLYLQMNNLKTEDTAVYYCVRVGLRFYAMDYWGQGTLVTVSS
VL: DVVMTQSPLSLPVTLGQPASISCRSSQSLVHSNANTYLEWYQQRPGQSPRLLIYKVSNRFSGVPDRFSGSGSGTDFTLKISRVEAEDLGVYYCFQGSQGPLTFGQGTKLEIK
notes: as for B1
As for B2, the Relative koff in assay [1] was determined as 1.1; with alpha-synuclein fibrils, 1.6.

B3: hACI-7067-1101C8-Ab2_H5L3 (antibody, V domains shown)
VH: EVQLVESGGGLVQPGGSLKLSCAASGFSFNIYAMNWVRQAPGKGLEWVGRIRSKSNAYATYYAASVKGRFTISRDDSKNTLYLQMNNLKTEDTAVYYCTRVGLRFYAMDYWGQGTLVTVSS
VL: DVVMTQSPLSLPVTLGQPASISCRSSQSIVHSNANTYLEWFQQRPGQSPRLLIYKVSNRFSGVPDRFSGSGSGTDFTLKISRVEAEDLGVYYCFQGSQGPLTFGQGTKLEIK
notes: as for B1
Regarding B3, the Relative koff (in assay [1]; with alpha-synuclein fibrils) was 0.2 each time.

B4: hACI-7067-1101C8-Ab2_H1L4 (antibody, V domains shown)
VH: EVQLVESGGGLVQPGGSLKLSCAASGFSFNIYAMNWVRQAPGKGLEWVARIRSKSNAYATYYAASVKGRFTISRDDSKNTLYLQMNNLKTEDTAVYYCVRVGLRFYAMDYWGQGTLVTVSS
VL: DVVMTQSPLSLPVTLGQPASISCRSSQSLVHSNANTYLEWFQQRPGQSPRLLIYKVSNRFSGVPDRFSGSGSGTDFTLKISRVEAEDLGVYYCFQGSQGPLTFGQGTKLEIK
notes: as for B1
On to B4, for which the Relative koff in assay [1] stood at 0.1; with alpha-synuclein fibrils it was 0.3.

B5: hACI-7067-1101C8-Ab2_H2L2 (antibody, V domains shown)
VH: EVQLVESGGGLVQPGGSLKLSCAASGFSFNIYAMNWVRQAPGKGLEWVGRIRSKSNAYATYYAASVKGRFTISRDDSKNTLYLQMNNLKTEDTAVYYCVRVGLRFYAMDYWGQGTLVTVSS
VL: DVVMTQSPLSLPVTLGQPASISCRSSQSLVHSNANTYLEWYQQRPGQSPRLLIYKVSNRFSGVPDRFSGSGSGTDFTLKISRVEAEDLGVYYCFQGSQGPLTFGQGTKLEIK
notes: as for B1
Regarding B5, the Relative koff was 1.1 in assay [1] and 1.9 with alpha-synuclein fibrils.

B6: hACI-7067-1101C8-Ab2_H1L3 (antibody, V domains shown)
VH: EVQLVESGGGLVQPGGSLKLSCAASGFSFNIYAMNWVRQAPGKGLEWVARIRSKSNAYATYYAASVKGRFTISRDDSKNTLYLQMNNLKTEDTAVYYCVRVGLRFYAMDYWGQGTLVTVSS
VL: DVVMTQSPLSLPVTLGQPASISCRSSQSIVHSNANTYLEWFQQRPGQSPRLLIYKVSNRFSGVPDRFSGSGSGTDFTLKISRVEAEDLGVYYCFQGSQGPLTFGQGTKLEIK
notes: as for B1
In the case of B6, the values for the Relative koff (in assay [1]; in the assay with alpha-synuclein fibrils) were 0.2 and 0.3, respectively.

B7: hACI-7067-1101C8-Ab2_H2L3 (antibody, V domains shown)
VH: EVQLVESGGGLVQPGGSLKLSCAASGFSFNIYAMNWVRQAPGKGLEWVGRIRSKSNAYATYYAASVKGRFTISRDDSKNTLYLQMNNLKTEDTAVYYCVRVGLRFYAMDYWGQGTLVTVSS
VL: DVVMTQSPLSLPVTLGQPASISCRSSQSIVHSNANTYLEWFQQRPGQSPRLLIYKVSNRFSGVPDRFSGSGSGTDFTLKISRVEAEDLGVYYCFQGSQGPLTFGQGTKLEIK
notes: as for B1
For B7, the values for the Relative koff (in assay [1]; with alpha-synuclein fibrils) were 0.2 and 0.3, respectively.

B8: hACI-7067-1101C8-Ab2_H5L2 (antibody, V domains shown)
VH: EVQLVESGGGLVQPGGSLKLSCAASGFSFNIYAMNWVRQAPGKGLEWVGRIRSKSNAYATYYAASVKGRFTISRDDSKNTLYLQMNNLKTEDTAVYYCTRVGLRFYAMDYWGQGTLVTVSS
VL: DVVMTQSPLSLPVTLGQPASISCRSSQSLVHSNANTYLEWYQQRPGQSPRLLIYKVSNRFSGVPDRFSGSGSGTDFTLKISRVEAEDLGVYYCFQGSQGPLTFGQGTKLEIK
notes: as for B1
Turning to B8, the Relative koff in assay [1] was determined as 0.8; with alpha-synuclein fibrils it was 1.4.

B9: hACI-7067-1101C8-Ab2_H2L4 (antibody, V domains shown)
VH: EVQLVESGGGLVQPGGSLKLSCAASGFSFNIYAMNWVRQAPGKGLEWVGRIRSKSNAYATYYAASVKGRFTISRDDSKNTLYLQMNNLKTEDTAVYYCVRVGLRFYAMDYWGQGTLVTVSS
VL: DVVMTQSPLSLPVTLGQPASISCRSSQSLVHSNANTYLEWFQQRPGQSPRLLIYKVSNRFSGVPDRFSGSGSGTDFTLKISRVEAEDLGVYYCFQGSQGPLTFGQGTKLEIK
notes: as for B1
As to B9, the Relative koff in assay [1] is 0.1; with alpha-synuclein fibrils, 0.2.

B10: hACI-7067-1101C8-Ab2_H3L2 (antibody, V domains shown)
VH: EVQLVESGGGLVQPGGSLKLSCAASGFSFNIYAMNWVRQAPGKGLEWVGRIRSKSNAYATYYAASVKGRFTISRDDSKNTAYLQMNNLKTEDTAVYYCVRVGLRFYAMDYWGQGTLVTVSS
VL: DVVMTQSPLSLPVTLGQPASISCRSSQSLVHSNANTYLEWYQQRPGQSPRLLIYKVSNRFSGVPDRFSGSGSGTDFTLKISRVEAEDLGVYYCFQGSQGPLTFGQGTKLEIK
notes: as for B1
In the case of B10, the Relative koff in assay [1] is 0.6; in the assay with alpha-synuclein fibrils, 1230.

B11: hACI-7067-1101C8-Ab2_H4L4 (antibody, V domains shown)
VH: EVQLVESGGGLVQPGGSLKLSCAASGFTFNIYAMNWVRQAPGKGLEWVGRIRSKSNAYATYYAASVKGRFTISRDDSKNTLYLQMNNLKTEDTAVYYCVRVGLRFYAMDYWGQGTLVTVSS
VL: DVVMTQSPLSLPVTLGQPASISCRSSQSLVHSNANTYLEWFQQRPGQSPRLLIYKVSNRFSGVPDRFSGSGSGTDFTLKISRVEAEDLGVYYCFQGSQGPLTFGQGTKLEIK
notes: as for B1
As to B11, the values for the Relative koff (in assay [1]; with alpha-synuclein fibrils) were 0.1 and 0.3, respectively.

B12: hACI-7067-1101C8-Ab2_H3L1 (antibody, V domains shown)
VH: EVQLVESGGGLVQPGGSLKLSCAASGFSFNIYAMNWVRQAPGKGLEWVGRIRSKSNAYATYYAASVKGRFTISRDDSKNTAYLQMNNLKTEDTAVYYCVRVGLRFYAMDYWGQGTLVTVSS
VL: DVVMTQSPLSLPVTLGQPASISCRSSQSIVHSNANTYLEWYQQRPGQSPRLLIYKVSNRFSGVPDRFSGSGSGTDFTLKISRVEAEDLGVYYCFQGSQGPLTFGQGTKLEIK
notes: as for B1
B12: the Relative koff amounted to 1 in assay [1] and 213 in the assay with alpha-synuclein fibrils.

B13: hACI-7067-1101C8-Ab2_H4L3 (antibody, V domains shown)
VH: EVQLVESGGGLVQPGGSLKLSCAASGFTFNIYAMNWVRQAPGKGLEWVGRIRSKSNAYATYYAASVKGRFTISRDDSKNTLYLQMNNLKTEDTAVYYCVRVGLRFYAMDYWGQGTLVTVSS
VL: DVVMTQSPLSLPVTLGQPASISCRSSQSIVHSNANTYLEWFQQRPGQSPRLLIYKVSNRFSGVPDRFSGSGSGTDFTLKISRVEAEDLGVYYCFQGSQGPLTFGQGTKLEIK
notes: as for B1
For the molecule B13, the Relative koff in assay [1] came out at 0.2; with alpha-synuclein fibrils it was 0.3.

B14: hACI-7067-1101C8-Ab2_H4L1 (antibody, V domains shown)
VH: EVQLVESGGGLVQPGGSLKLSCAASGFTFNIYAMNWVRQAPGKGLEWVGRIRSKSNAYATYYAASVKGRFTISRDDSKNTLYLQMNNLKTEDTAVYYCVRVGLRFYAMDYWGQGTLVTVSS
VL: DVVMTQSPLSLPVTLGQPASISCRSSQSIVHSNANTYLEWYQQRPGQSPRLLIYKVSNRFSGVPDRFSGSGSGTDFTLKISRVEAEDLGVYYCFQGSQGPLTFGQGTKLEIK
notes: as for B1
Turning to B14, the Relative koff amounted to 1.9 in assay [1] and 0.5 with alpha-synuclein fibrils.

B15: hACI-7067-1101C8-Ab2_H7L1 (antibody, V domains shown)
VH: EVQLVESGGGLVQPGGSLKLSCAASGFSFNIYAMNWVRQAPGKGLEWVARIRSKSNAYATYYAASVKGRFTISRDDSKNTLYLQMNNLKTEDTAVYYCVRVGLRFYATDYWGQGTLVTVSS
VL: DVVMTQSPLSLPVTLGQPASISCRSSQSIVHSNANTYLEWYQQRPGQSPRLLIYKVSNRFSGVPDRFSGSGSGTDFTLKISRVEAEDLGVYYCFQGSQGPLTFGQGTKLEIK
notes: as for B1
As for B15, the Relative koff with alpha-synuclein fibrils is 1420.

B16: hACI-7067-1101C8-Ab2_H3L4 (antibody, V domains shown)
VH: EVQLVESGGGLVQPGGSLKLSCAASGFSFNIYAMNWVRQAPGKGLEWVGRIRSKSNAYATYYAASVKGRFTISRDDSKNTAYLQMNNLKTEDTAVYYCVRVGLRFYAMDYWGQGTLVTVSS
VL: DVVMTQSPLSLPVTLGQPASISCRSSQSLVHSNANTYLEWFQQRPGQSPRLLIYKVSNRFSGVPDRFSGSGSGTDFTLKISRVEAEDLGVYYCFQGSQGPLTFGQGTKLEIK
notes: as for B1
Take B16: the results for the Relative koff (in assay [1]; with alpha-synuclein fibrils) were 0.1 and 0.3, respectively.

B17: hACI-7067-1101C8-Ab2_H1L1 (antibody, V domains shown)
VH: EVQLVESGGGLVQPGGSLKLSCAASGFSFNIYAMNWVRQAPGKGLEWVARIRSKSNAYATYYAASVKGRFTISRDDSKNTLYLQMNNLKTEDTAVYYCVRVGLRFYAMDYWGQGTLVTVSS
VL: DVVMTQSPLSLPVTLGQPASISCRSSQSIVHSNANTYLEWYQQRPGQSPRLLIYKVSNRFSGVPDRFSGSGSGTDFTLKISRVEAEDLGVYYCFQGSQGPLTFGQGTKLEIK
notes: as for B1
Take B17: the Relative koff in assay [1] was 1.3; in the assay with alpha-synuclein fibrils it was 851.

B18: hACI-7067-1101C8-Ab2_H1L2 (antibody, V domains shown)
VH: EVQLVESGGGLVQPGGSLKLSCAASGFSFNIYAMNWVRQAPGKGLEWVARIRSKSNAYATYYAASVKGRFTISRDDSKNTLYLQMNNLKTEDTAVYYCVRVGLRFYAMDYWGQGTLVTVSS
VL: DVVMTQSPLSLPVTLGQPASISCRSSQSLVHSNANTYLEWYQQRPGQSPRLLIYKVSNRFSGVPDRFSGSGSGTDFTLKISRVEAEDLGVYYCFQGSQGPLTFGQGTKLEIK
notes: as for B1
Regarding B18, the Relative koff came out at 0.6 in assay [1] and 131 in the assay with alpha-synuclein fibrils.

B19: hACI-7067-1101C8-Ab2_H3L3 (antibody, V domains shown)
VH: EVQLVESGGGLVQPGGSLKLSCAASGFSFNIYAMNWVRQAPGKGLEWVGRIRSKSNAYATYYAASVKGRFTISRDDSKNTAYLQMNNLKTEDTAVYYCVRVGLRFYAMDYWGQGTLVTVSS
VL: DVVMTQSPLSLPVTLGQPASISCRSSQSIVHSNANTYLEWFQQRPGQSPRLLIYKVSNRFSGVPDRFSGSGSGTDFTLKISRVEAEDLGVYYCFQGSQGPLTFGQGTKLEIK
notes: as for B1
On to B19, for which the Relative koff in assay [1] amounted to 0.1; with alpha-synuclein fibrils it was 0.2.
